For one substance, inhibition of TNF-induced NF-κB luciferase reporter activity in transfected human embryonic kidney cells by combined stimulation with YB-1 and PGRN results are on record in paper PMC7583764.

The target of this test is recombinant human PGRN (human) (UniProt P28799).
Chain of UniProt P28799 (P28799 18-593): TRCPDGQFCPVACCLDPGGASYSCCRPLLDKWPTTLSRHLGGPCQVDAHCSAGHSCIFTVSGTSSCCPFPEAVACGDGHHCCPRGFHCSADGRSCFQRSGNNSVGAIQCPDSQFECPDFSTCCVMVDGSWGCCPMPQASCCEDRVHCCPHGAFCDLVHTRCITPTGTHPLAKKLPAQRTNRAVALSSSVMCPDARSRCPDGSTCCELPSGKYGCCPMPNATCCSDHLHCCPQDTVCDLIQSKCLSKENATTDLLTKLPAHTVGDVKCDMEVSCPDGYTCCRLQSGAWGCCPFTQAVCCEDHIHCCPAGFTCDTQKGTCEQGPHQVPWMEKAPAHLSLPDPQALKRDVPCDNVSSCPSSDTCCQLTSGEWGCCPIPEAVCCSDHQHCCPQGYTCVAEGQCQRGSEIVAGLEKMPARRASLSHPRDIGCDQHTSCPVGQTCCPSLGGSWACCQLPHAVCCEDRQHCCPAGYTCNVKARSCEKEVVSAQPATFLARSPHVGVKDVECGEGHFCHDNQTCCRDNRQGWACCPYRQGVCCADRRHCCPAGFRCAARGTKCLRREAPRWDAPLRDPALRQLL

Take “recombinant human Flag-YB-1 (from UniProt P67809 1-324) (natural protein)”: the inhibition of TNF-induced NF-κB luciferase reporter activity in transfected human embryonic kidney cells by combined stimulation with YB-1 and PGRN came out at 65%.
